Source: the nanobody polyreactivity screen of Harvey et al. (2022)

Test: yeast display, Sf9 membrane polyspecificity reagent, FACS + sequencing; frameworks hold sequencing errors
Summary of the method: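 Genes from sorted yeast were amplified by colony PCR, read by MiSeq 2 × 250 sequencing and filtered on CDR length. These cells carried a synthetic nanobody library in Saccharomyces cerevisiae BJ5465 and were sorted by FACS into low and high (top ~1%) gates on anti-HA and streptavidin fluorescence. Polyreactivity is labelled according to the gate of origin.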

| Sequence | polyreactivity (PSR sort gate) |
| --- | --- |
| QVQLVESGGGLVQAGGSLRLSCAASGSIFIWNAMGWYRQAPGKERELVAAISFSGGSTYYADSVKGRFTISRDNAKNTVYLQMNSLKPEDTAVYYCAADSFSGRYYWWEYDYWGQGTQVTVSS | low polyreactivity |
| QVQLVESGGGLVQAGGSLRLSCAASGIIFPVYAMGWYRQAPGKERELVAAISSSGSSTYYADSVKGRFTISRDNAKNTVYLQMNSLKPEDTAVYYCAAVRYGLRRMDYWGQGTQVTVSS | high polyreactivity |
| QVQLVESGGGLVQAGGSLRLSCDASGSILVAYAIGWYRQAPGKEREFVAAISSVGNTYYADSVKGRFTISRDNAKNTVYLQMNSLKPEDTAVYYCNAVYRVWYAEWSTVGSPHDYWGQGTQVTVSS | low polyreactivity |
| QVQLVESGGGLVQAGGSLRLSCAASGSIFGYYAMGWYRQAPGKERELVAAISSSGASTYYADSVKGRFTISRDNAKNTVYLQMNSLKPEDTAVYYCNADRRYPTRGGYWGQGTQVTVSS | high polyreactivity |
| QVQLVESGGGLVQAGGSLRLSCPASGFTIRRNAMGCYRQAPGKERELVAAITRGGGSTYYADSVKGRFTISRDNAKNTVYLQMNSLKPEDTAVYYCSADGYYQYESWGQGTQVTVSS | high polyreactivity |
| QVQLVESGGGLVQAGGSLRLSCAASGSTFAFNAMGWYRQAPGQERELVAGITWSSGSTYYADSVKGRFTISRDNAKNTVYLQMNSLKPEDTAVYYCNVQSVHFRLWKDNYWGQGTQVTVSS | high polyreactivity |
| QVQLVESGGGLVQPGGSLRLSCAASGSIFYCNAMGSYRQAPGKEREFVAGITTSGGSTYYADSVKGRFTISRDNAKNTVYLQMNSLKPDDTAVYYCNKVWVYAVTPSSWYKYGSWGQGNQVTVSS | low polyreactivity |
| QVQLVESGGGLVQAGGSLRLSCAASGFIFGYYAMGWYRKAPGKERELVAAITSGDGSTYADSVKGRFTISRDNEKNTVYLQMNSLKPEDTAVYYCAAVFRYYTYSGAVRYYYWGQGTQVTVSS | high polyreactivity |
| QLQHVESGGGLVQAGGSLRLSCAASGSTFYRNAMGWYRQAPGKDRELVAAISRGSRTYYADSVKGRFTISRDNAKNTVYLQMNSLKPEDTAVYYCAALYGSRSTYHMDDYWGQGTQVTVSS | high polyreactivity |
| QVQLVESGGGLVQAGGSLRLSCAASGRIFRFNAMGWYRQAPGKERELVAAITGSGGTTFYADSVKGRFTISRDNAKNTVYLQMNSLKPEDTAVYYCARQRTVKKYYYWGQGTQVTVSS | high polyreactivity |
| QVQLVESGGGLVQAGGSLRLSCAASGRTFKKYAMGWYRQAPGKEREVVAAITSRVGSTSYADSVKGRFTISRDNAKNTVYLQMNSLKPEDTAVYYCAARYSVGTGYGYWGQGTQVTVSS | high polyreactivity |
| QVQLVESAGGLVQAGGSLRLSCAASGFTFVYYVMGWYRQAPGKERELVAAINAGGGSTYYADSVKGRFTISRDNAKNTVYLQMNSLIPEDTAVYYCIARVRVRLGRNWSSYYDWGQCTQVTVSS | high polyreactivity |
| QVQLVESGGGLVQAGGSLRLTCAASGLTFYYYAMGRYRQATGKETELVASISTGGKKYYADSVKGRFTISRDNANNTVYLQMNSLKPEDTAVYYCAADRYDSSQFYYWGQGTQLTVSS | low polyreactivity |
| QVHLVESGGGLVQAGGSLRLICAASGRIFIVYAMGWYRQAPGKERELVAVITGGGSTNYADSVKGRFTISRDNAKNSVYLQMNSLKPEDTAVYYCATEGYGHGGETVGGVYSDLGYWGQGTQVTVSS | low polyreactivity |
| QVKLVESGGGLVQAGGSLRLSCAASGRTFRYNAMGWYRQEPGEERELVASITSGGSTNYADSVKGRFTISRDNAKNTVYLQMNRLKPEDTAVYYCAADERRPYWQHCIGSGRPFDYWGQGTQVTVSS | low polyreactivity |
| QVQIVESGGGLVQAGGSLRLSCAASGITFVGNAMVWYRQAPGKERELVAVISRGDSTNYADSVKGLFTISRDNAKNTVYLQMNSLKPEDTAVYYCAADGSRAGQEGNDYWGQGTQVSVSS | low polyreactivity |
| QVQLVESGGGLVQAGGSLRLSCAASGSTFWSNTMGWYRQAPGKERELVASITTSGGRTYYADSVKGRFTISRDNAKNTVYLQMNSLKPEDTAVYYCAAGGRVRRRYGYWGQGTQVTVSS | high polyreactivity |
| QDQLVESAGGLVQAGGSLRLTCAASGFIFADNAMGWYRQAPGKERELVAGITSGGITYYADSVKGRFTISRDNAKNTVYLQMNCLKPEDTAVYYCNTTSYPEFDYWGHGTQVTVSS | low polyreactivity |
| QVQLVESGGGLVQAGGSLRLSCAASGFIFQSYAMGWYRQAPGKERQLVAAISYTGGSTYYADSVKGRFTISRDNAKNTVYLQMNSLKPEDTAVYYCARSYYTNGNALKRDYWGQGTQVTVSS | high polyreactivity |
| QVQLVESGGGLVQAGGSLRLSCAASGSIVYTNALGWSRQAPAKERELVAAISGSGGNTYYADSVKVRFTISRDNAKNTVYLQMNSLNPEDTAVYYCAADRNAYYYDSYYYWGLGTQVTVSS | high polyreactivity |
| QVQLVESGGGLVQAGGSLRLSCAASGSIFGIYAMGWYRQAPGKERELVAAISSRAGSTNYADSVKGRFTISRDNAKNTVYLKMNSLKPEDTAVYDCNAKFSPPRRWPLRDYWGQGTQVTVSS | high polyreactivity |
| QVQLVESGGGLVQAGGSLRLSCAASGITFSYNAMGWYRPAPGKERELVAAISSNSDSTYYADSVKGRFTISRDNAKNTVYLQMNSLKPEDTAVYYCAADTPDAPDYSGFYYWGQGTQVTVSS | low polyreactivity |

| Sequence | polyreactivity (PSR sort gate) |
| --- | --- |
| QVQLVESGGGLDQAGGSLRLSCAASGIIFWEYAMGWYRQAPGKERELVAAINARGTRTYYADSVKGRFTISRDNAKNTVYLQMNSLKPEDTAVYYCAADRYGWTRYDSWGQGTQVTVSS | high polyreactivity |
| QVQLVESGGGLVQAGGSLRLSCAASGFIFDKYVMGWYRQAPGKERELVAAISSGGSTYYADSVKGRFTISRDNAKNTVYLQMNSLKPEDTAVYYCNAGGFWPWVYGYDSWGQGTQVTVSS | high polyreactivity |
| QVQLVESGGGLVQAGGSLRLSCAASGRTFRWNGMGWYRQAPGKERELVAVINRGGSTTYADSVKGRFTISRDNAKNTVYLQMNSLKPEDTAVYYCAKDHYYAGTWRYGYWGQGTQVTVSS | high polyreactivity |
| QVQLVESGGGLVQAGGSLRLSCAASGSTFGRNVIGWYRQAPGKERELVAAISIRGGSTYYADSVKGRFTISRDIAKNTVYLQMNSLKPEDTAVYYCALDYPTDAYDYWGQGTQVTVSS | low polyreactivity |
| QVQVVESRGGLVQAGGSLRLSCAASGLIFLGYAMGWYRQAPGKERELVASIRTGGSTSYADSVKGRFTISRDNENNRVYLQMNSLKPEDTAVYYCAADRGRPNLPGDYWGQGSQVTVSS | low polyreactivity |
| QVQLVESGGGLVQAGGSLRLSCAASGRIFIGNAMGWYRQAPGKERELVAAISKRGGSTYYADSVKGRFTISRDNAKNTVYLQMNSLKPEDTAVYYCNKESLYREFDYWGQGTQVTVSS | low polyreactivity |
| QVQLVESGGGLVQAGGSLRLSCAASGSIFWYYAMGWYRQAPGKERELVADITIRGGRTYYADSVKGRFTISRDNAKNTVYLQMNSLKPEDTAVYYCAADWEYWGFGLYDYWGQGTQVTVSS | low polyreactivity |
| QVQLVESGGGLVQAGGSLRLSCAASGSTVVYYAMGWYRQAPGKERELVAAITSGGSTNYADSVKGRFTISRDNAKITVYLQMNSLKPEDTAVYYCNAEPETTIDYWGQGTQVTVSS | low polyreactivity |
| QVQHVESGGGLVQAGGSLRLSCAASGSIFAGYANGWYRKAPGKERELVARITDRGGSTDYADSVKGRYTISRDNAKNTVYLQMNSLKPEDTAVYSCAKRGDRYEKRPRDYWGQGTQVTVSS | low polyreactivity |
| QVQLLESGGGLVQAGGSLRLSCAASGSILIKYAMGWYRQAPGKERELVATITSGGSTYYADSVKGRFTISRDNAKNTVYLQMNSLKPEDTAVYYCATGQYYYYGIVAFFELDYWGQGTQVTVSS | low polyreactivity |
| QVQLVESGGGLVQAGGSLRLSCAASGFIFGWNAMGWYRQAPGKEREFVAAITSSGTSTYYADSVKGRFTISRDNAKNTVYLQMNSLKPEDTAVYYCATEGWPFYPARDYDYWGQGTQVTVSS | low polyreactivity |
| QVQLVESGGGLVQAGGSLRLSCAASGSTFYVNAMGSYRQAPGQERELVAAIRSSAGNTTYADSVKGRFTISRDNAKNTVYLQMNSLKPEETAVYYCAADSRPYLRDYWGQGTQVTVSS | low polyreactivity |
| QVQLVESGGGLVQAGGSLRLSCAASGRTFRSYAMGWYRQAPGKERELVATITRGSSTNYADSGKGRFTISRDNAKNTVYLQMNSLKPEDTAVYYCNADGKPPYISWLYDYWGQGTQVTVSS | low polyreactivity |
| QVQLVESGGGLVQAGGSLRLSCAASGFIFWYYAMGWYRQAPGKERELVATITSGGSTTYADSVKGRFTISRDNAKNTVYLQMNSLKPEDTAVYYCAAKGISRYDWGQGTQVTVSS | low polyreactivity |
| QVQLVESGGGLVQAGGSLRLSCAASGSTFYYYAMGWYRPAPGKERELVAAISSRGGSTFYADSVKGRFTISRDNAKNTVYLQMNSLKPEDTAVYYCNAYRYDRSQYYPYDYWGQGTQVTVSS | high polyreactivity |
| QVQLVESGGGIVQAGGSLRLSCAASGRSFDPYAMGWYRQAPGKERELVAAISRSGGSTYYADSVKGRFTISRDNAKNTVYLQMNSLKPEDTAFYYCAADDSRYYYEYDYWGQGTQVTVSS | high polyreactivity |
| QVQLVESGGGLVQAGGSLRLSCAASGFTFRLYTMGWYRQAPGKERELVAAITYSGDSTYYADSVKGRFTISRDYAKNTVYLQMNSLKPEDTAVYYCAARKYYARYYWGQGSQVTVSS | high polyreactivity |
| QVQLVESGGGLVQAGGSLRLSCAASGGIFRYAMGWYRQAPGKEREFVAAITTRGGSTYYADSVKARFTISRDNAKNTVYLQMNSLKPEDTAVYYCAARRYSGRNKYDYWGQGTQLTVSS | high polyreactivity |
| QVQLVDSGGGLVQAGGSLRLSCAASGRTFDGYAMGWYRQAPGKERELVAAISRTGGSTYYADSVKGRFTISRENAKNTVYLLMTSLKPEDTAVYYCNAVTLSSTYGGHDYWGQGTQVTVSS | high polyreactivity |
| QVQLVESWGALVQAGGSLRLSCAASGSTFGYYAMGWYRQAPGKDRELVAAITRSGGSTSYADSVTGRFTISRDNAKNTVYLQMNSLKPEATAVYYCAARFYRPYYARQGYNYWGQGTKVTVSS | high polyreactivity |
| QFQLVESGGGLVQAGGSLRLSCAATGSIIGANAMGWYRQAPGKERELVAAISTRGGRTYYADSVKGRFTISRDNAKNTVYLQMNSLKPEDTAVYYCATSGGRPYKYEYWGQGTQVTVSS | high polyreactivity |
